This passage reports Kd results from article PMC7251119 (2020).

First the molecules themselves.
B1: (His)10-MBP-DotL(656-783)–IcmSW–LvgA (complex)
chain 1: GQNEPEPVEDIVEEEVEGALTIFSKLRIDPNAPPILVADKEVFSEPLLPINETRNQMITIERLAGAKDKYAGTVANELIKDFQIATSYPPEERDVIDVQELTGIIRDLSAKISAEREKANKKAAEELT
chain 2: MERDISKCMAKIAASMNAKFYLNDRFVSFDEVFSETGLLPAIAKRADQLCSLCLGYGLGATYDESEGALLGIRVVFDEVTPNVLRLLCMTDVMNELIQGGPSRDYTPLDELMYD
chain 3: MPDLSHEASAKYWFEYLDPMIYRVITFMESVENWTLDGNPELEEAMKQLGQELDDIEKIDLGLLAEEDKFIRIVGNIKSGRGLRLLQAIDTVHPGSASRVLIHAEETSLSSSDPAGFFLKRNIVFERLRLLSRVFCQYRLKLVLRALEGDE
chain 4: MADGDIEIKAGFVDTDLDDRKLTMIDDLNNPLAIVERVYLIWWHWADFHLHVISPHIDTITPAIVIEPELIPGSNDHEFVYSIHDSGSKLSTSKSQDMFSAGMSMCKLFYTIEKMVYILVERLKSGGVSMEAEVQIAFAGHEIAQRKAFESIINLPYNVVVTNFDPGIWGEKYLQNVKRLADKGYGYPPESPRKIYMHPVSSGTTARK
B2: SetA (natural protein)
chain: MYKIYSYLGWRIDMKTENLPQAGQEAQIDKKIHFIWVGHIMPQKNIQVVSEWAEKNPGYETIIWVDKKIAPAKELDLFILDMKSKGITVKDINEEGVCRDSIRHELDQESPNYGMVSDMLRLNILAAEGGIYLDSDILCSAPFPDEIYAPFGFLLSPWSQGANNTLCNDIILCSKGNQIIQQLADAIEQSYIARDSFEFTHEYASMKETKGERIAKTLGVTGPGFLFHQLKKMGILNDKSEMEAIHWELQDQRYLIDGSVKEPDYFYVPQNNTNDASWVPSIKRPGIENMSFQERLENAVQLIAFDIQKTGLFNLDHYANELKVKQNSWCIAAETSPELKPDSYLLIRPRDKTGEWTLYYVDEDKKLNPVTLPVIKGAIKLSEVSDPLRKFHTLLSQVSDPVNPTAHELKQIGRALIELKPRQDEWHCKNKWSGAEEIAQELWQRITSNETLRAQIKQCFTQFESLKPRVAELGLTRASGAGTEVEAHESTVKEQEIISQNTVGEEGTKEKNSVQLASENSSDEKIKTAHDLIDEIIQDVIQLDGKLGLLGGNTRQLEDGRVINIPNGAAMIFDDYKKYKQGELTAESALESMIKIAKLSNQLNRHTFFNQRQPETGQFYKKVAAIDLQTTIAAEYDNNHGLRI

Test in all cases: BLI
On the technique in general: BLI is a label-free optical method that tracks binding on a fibre tip over time.

One assay addresses PieA (Legionella pneumophila).
The target of another assay is SidH(1830-2200) (Legionella pneumophila, UniProt Q5ZRQ1 1830-2200).
The target in assay [1] is B1.

Regarding B1, the Kd with PieA turned out to be 230 nM; in the assay with SidH(1830-2200), 570 nM.
B2 had a Kd in assay [1] of 920 nM.

A word on the Kd: it is the concentration at which binding is half-saturated.
